Tested on: Escherichia coli TOP10
Test: shrunken log2 fold change of peptide-encoding DNA abundance (4.5 h post-induction vs induction); higher = less antimicrobial activity (less host growth inhibition)
Settings: time post-induction: 4.5 h; library: site-saturation at positions 5, 18, 19, 20
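Note: peptides expressed intracellularly from a pBAD plasmid library in pooled LB shake-flask culture, induced with 0.3% L-arabinose, DNA abundance read by NGS, three biological replicates, DESeq2 with apeglm shrinkage.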

Row | Sequence | shrunken log2 fold change
1 | RRIRDRPPRLPRPRPRPKDYPRP | -0.192
2 | RRIRDRPPRLPRPRPRPKGCPRP | 0.0262
3 | RRIRDRPPRLPRPRPRPKGMPRP | -0.00453
4 | RRIRDRPPRLPRPRPRPKHCPRP | 0.0694
5 | RRIRDRPPRLPRPRPRPKKIPRP | 0.0726
6 | RRIRDRPPRLPRPRPRPKKQPRP | 0.187
7 | RRIRDRPPRLPRPRPRPKKVPRP | 0.241
8 | RRIRDRPPRLPRPRPRPKPCPRP | 0.0155
9 | RRIRDRPPRLPRPRPRPKPDPRP | 0.306
10 | RRIRDRPPRLPRPRPRPKPHPRP | 0.305
11 | RRIRDRPPRLPRPRPRPKPQPRP | 0.111
12 | RRIRDRPPRLPRPRPRPKPVPRP | 0.00913
13 | RRIRDRPPRLPRPRPRPKRGPRP | 0.0777
14 | RRIRDRPPRLPRPRPRPKRNPRP | 0.136
15 | RRIRDRPPRLPRPRPRPKSLPRP | 0.196
16 | RRIRDRPPRLPRPRPRPKSTPRP | -0.175
17 | RRIRDRPPRLPRPRPRPKVYPRP | -0.0329
18 | RRIRDRPPRLPRPRPRPKWEPRP | 0.104
19 | RRIRDRPPRLPRPRPRPLACPRP | 0.945
20 | RRIRDRPPRLPRPRPRPLCIPRP | 0.162
21 | RRIRDRPPRLPRPRPRPLCTPRP | 0.704
22 | RRIRDRPPRLPRPRPRPLDFPRP | 0.0675
23 | RRIRDRPPRLPRPRPRPLDWPRP | 0.0834
24 | RRIRDRPPRLPRPRPRPLEAPRP | 0.679
25 | RRIRDRPPRLPRPRPRPLEMPRP | 0.0813
26 | RRIRDRPPRLPRPRPRPLFLPRP | -0.13
27 | RRIRDRPPRLPRPRPRPLFMPRP | 0.154
28 | RRIRDRPPRLPRPRPRPLFQPRP | 0.192

Row | Sequence | shrunken log2 fold change
29 | RRIRDRPPRLPRPRPRPLFTPRP | 0.0222
30 | RRIRDRPPRLPRPRPRPLGYPRP | 0.0343
31 | RRIRDRPPRLPRPRPRPLHNPRP | -0.338
32 | RRIRDRPPRLPRPRPRPLLAPRP | 1.2
33 | RRIRDRPPRLPRPRPRPLNDPRP | -0.172
34 | RRIRDRPPRLPRPRPRPLPCPRP | 0.0544
35 | RRIRDRPPRLPRPRPRPLQIPRP | -0.21
36 | RRIRDRPPRLPRPRPRPLQPPRP | 0.467
37 | RRIRDRPPRLPRPRPRPLQQPRP | 0.104
38 | RRIRDRPPRLPRPRPRPLRMPRP | 0.409
39 | RRIRDRPPRLPRPRPRPLRRPRP | 0.463
40 | RRIRDRPPRLPRPRPRPLSAPRP | 0.379
41 | RRIRDRPPRLPRPRPRPLSKPRP | 0.132
42 | RRIRDRPPRLPRPRPRPLSQPRP | 0.483
43 | RRIRDRPPRLPRPRPRPLVFPRP | -0.0186
44 | RRIRDRPPRLPRPRPRPLVYPRP | -0.259
45 | RRIRDRPPRLPRPRPRPLWQPRP | 0.316
46 | RRIRDRPPRLPRPRPRPLYDPRP | -0.107
47 | RRIRDRPPRLPRPRPRPMAEPRP | 0.902
48 | RRIRDRPPRLPRPRPRPMAMPRP | 0.25
49 | RRIRDRPPRLPRPRPRPMDIPRP | 0.0403
50 | RRIRDRPPRLPRPRPRPMDKPRP | -0.0384
51 | RRIRDRPPRLPRPRPRPMEEPRP | -0.00277
52 | RRIRDRPPRLPRPRPRPMELPRP | 0.0119
53 | RRIRDRPPRLPRPRPRPMGQPRP | 0.0515
54 | RRIRDRPPRLPRPRPRPMHFPRP | -0.142
55 | RRIRDRPPRLPRPRPRPMHPPRP | -0.0589

Source: the supplement of paper PMC9112550, “Optimization of the antimicrobial peptide Bac7 by deep mutational scanning” (BMC Biology, 2022)
